Consider two molecules from US20220169682A1 (PARIS SCIENCES ET LETTRES, published 2022).

The target of this test is T1, FKBP-NFAST (UniProt P62942 2-108).
T1 construct: Expressed in HEK293T cells; also called cmyc-FKBP-linker-NFAST; pAG149; not shown: c-myc tag
The experiment in a line: split-FAST fluorescence complementation, confocal imaging of HEK293T cells, 100 nM rapamycin, HMBR or HBR-3,5DOM. On the procedure: FIG. 5A-B show HEK293T cells co-expressing FKBP-NFAST and FRB-CFASTn (n=10 or 11) which were labeled with 5 μM HMBR (FIG. 5A) or 10 μM HBR-3,5DOM (FIG. 5B) and imaged before and after addition of 100 nM rapamycin. Scale bars 10 μm. […] Cells expressing FAST were used as control. HMBR concentration was 10 μM. Excitation at 488 nm at 6.3 kW/cm2. Six cells were analyzed per condition. […] Scale bars 20 μm. […] Scale bars 20 μm.

T1 sequence (P62942 other isoform, or with tags, fused parts or gaps): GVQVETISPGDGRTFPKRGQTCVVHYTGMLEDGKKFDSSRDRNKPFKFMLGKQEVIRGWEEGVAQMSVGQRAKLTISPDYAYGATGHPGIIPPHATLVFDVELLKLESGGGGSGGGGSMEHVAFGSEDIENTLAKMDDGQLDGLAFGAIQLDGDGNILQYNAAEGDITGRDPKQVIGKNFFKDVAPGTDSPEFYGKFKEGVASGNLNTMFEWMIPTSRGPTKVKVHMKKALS

B1: FRB-CFAST11 (other)
chain: ILWHEMWHEGLEEASRLYFGERNVKGMFEVLEPLHAMMERGPQTLKETSFNQAYGRDLMEAQEWCRKYMKSGNVKDLTQAWDLYYHVFRRISKSGGGGSGGGGSGDSYWVFVKRV
notes: Expressed in HEK293T cells; also called cmyc-FRB-linker-CFAST(115-125); pAG152; not shown: c-myc tag
Take B1: the binding result was “binds”.

B2: FRB-CFAST10 (other)
chain: ILWHEMWHEGLEEASRLYFGERNVKGMFEVLEPLHAMMERGPQTLKETSFNQAYGRDLMEAQEWCRKYMKSGNVKDLTQAWDLYYHVFRRISKSGGGGSGGGGSGDSYWVFVKR
notes: also called FRB-CFASTn (n=10)
With B2, the binding result is recorded as “binds”.
